Data published in patent publication US12065471B2, “B*44 restricted peptides for use in immunotherapy against cancers and related methods” (Immatics Biotechnologies GmbH, priority 2018, dated 2024).

Molecular target: HLA-B*44:05 (Homo sapiens, UniProt P01889, A223V/A65T/A93T/A95T/D201E/D98Y/E176V/E187L/E204Q/E69K/G107R/H137Y/K202T/L105A/L119I/N104T/N87E/Q56L/Q94N/R106L/R155S/R180D/S101N/S121R/S35A/S48T/T118I/V36M/W191S/Y91S)
Assay: MHC binding assay (UV-ligand exchange, β2m ELISA, peptide exchange yield)
Conditions: binding to HLA-B*44:05
Outline: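 Binding is read as exchange yield, i.e. stabilized complex remaining after UV cleavage of a photolabile ligand in the presence of the candidate peptide. Streptavidin-captured monomers (100-fold dilution) are probed with HRP-anti-β2m, 1h at 37° C, TMB, A450. Standard curve: HLA-A*02:01/MLA-001 monomers at 15-500 ng/ml.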

Substance | Peptide exchange (MHC class I binding score, peptide exchange yield)
381 (QELMAFSFAGL; listed as Homo sapiens) [compound 381] | ++++ (>75% = ++++)
382 (SELNPLALY; listed as Homo sapiens) [compound 382] | +++ (>50 = +++)
383 (EEMERDLDMY; listed as Homo sapiens) [compound 383] | +++ (>50 = +++)
384 (LDGIPTAGW; listed as Homo sapiens) [compound 384] | +++ (>50 = +++)
385 (LEHPFLVNLW; listed as Homo sapiens) [compound 385] | ++++ (>75% = ++++)
388 (VEIVTIPSL; listed as Homo sapiens) [compound 388] | +++ (>50 = +++)
390 (GEYNKHAQLW; listed as Homo sapiens) [compound 390] | ++++ (>75% = ++++)
391 (TESIGAQIY; listed as Homo sapiens) [compound 391] | +++ (>50 = +++)
393 (SETILAVGL; listed as Homo sapiens) [compound 393] | +++ (>50 = +++)
397 (EECGKAFSVF; listed as Homo sapiens) [compound 397] | +++ (>50 = +++)
399 (IEQADWPEI; listed as Homo sapiens) [compound 399] | ++ (>20% = ++)
400 (TELGLFGVW; listed as Homo sapiens) [compound 400] | ++++ (>75% = ++++)
401 (VENIFHNF; listed as Homo sapiens) [compound 401] | ++ (>20% = ++)
403 (QESVHVASY; listed as Homo sapiens) [compound 403] | ++++ (>75% = ++++)
404 (AEREQVIKL; listed as Homo sapiens) [compound 404] | ++++ (>75% = ++++)
407 (MEFQNTQSY; listed as Homo sapiens) [compound 407] | +++ (>50 = +++)
409 (QEAKPRATW; listed as Homo sapiens) [compound 409] | +++ (>50 = +++)
410 (RELEEEFYSL; listed as Homo sapiens) [compound 410] | +++ (>50 = +++)
411 (AERDLNVTI; listed as Homo sapiens) [compound 411] | +++ (>50 = +++)
413 (TELEPGLTY; listed as Homo sapiens) [compound 413] | +++ (>50 = +++)
414 (AEGYLDLDGI; listed as Homo sapiens) [compound 414] | ++ (>20% = ++)
416 (DELMRKESQW; listed as Homo sapiens) [compound 416] | +++ (>50 = +++)

Substance | Peptide exchange (MHC class I binding score, peptide exchange yield)
419 (SELSLLSLY; listed as Homo sapiens) [compound 419] | +++ (>50 = +++)
423 (KEAINLLKNY; listed as Homo sapiens) [compound 423] | +++ (>50 = +++)
424 (EEHVYESIIRW; listed as Homo sapiens) [compound 424] | +++ (>50 = +++)
426 (AESLFREAL; listed as Homo sapiens) [compound 426] | +++ (>50 = +++)
427 (AEMLGSVVGNW; listed as Homo sapiens) [compound 427] | +++ (>50 = +++)
428 (AEEKAAVTSL; listed as Homo sapiens) [compound 428] | +++ (>50 = +++)
430 (RELARVVTL; listed as Homo sapiens) [compound 430] | ++++ (>75% = ++++)
431 (QELLDFTNW; listed as Homo sapiens) [compound 431] | ++++ (>75% = ++++)
432 (TEENGFWYL; listed as Homo sapiens) [compound 432] | ++++ (>75% = ++++)
434 (AEQQQQQMY; listed as Homo sapiens) [compound 434] | +++ (>50 = +++)
435 (FETEQALRL; listed as Homo sapiens) [compound 435] | +++ (>50 = +++)
437 (HEDPSGSLHL; listed as Homo sapiens) [compound 437] | +++ (>50 = +++)
439 (VEVGDRTDW; listed as Homo sapiens) [compound 439] | +++ (>50 = +++)
441 (QEVAQVASAIL; listed as Homo sapiens) [compound 441] | ++++ (>75% = ++++)
442 (KESDAGKYY; listed as Homo sapiens) [compound 442] | +++ (>50 = +++)
443 (EEYAGQITL; listed as Homo sapiens) [compound 443] | +++ (>50 = +++)
444 (SESALQTVI; listed as Homo sapiens) [compound 444] | +++ (>50 = +++)
445 (QEVGEITNL; listed as Homo sapiens) [compound 445] | +++ (>50 = +++)
446 (AENIKKFLY; listed as Homo sapiens) [compound 446] | +++ (>50 = +++)
447 (KEFGLDSVEL; listed as Homo sapiens) [compound 447] | +++ (>50 = +++)
448 (ALSPVPSHW; listed as Homo sapiens) [compound 448] | +++ (>50 = +++)
449 (RENDFEPKF; listed as Homo sapiens) [compound 449] | +++ (>50 = +++)

Next, values leading:

Peptide exchange (MHC class I binding score, peptide exchange yield) | Substance
+++ (>50 = +++) | 386 (EESDYITHY; listed as Homo sapiens) [compound 386]
+++ (>50 = +++) | 387 (GEVQENYKL; listed as Homo sapiens) [compound 387]
++ (>20% = ++) | 389 (DEQRRQNVAY; listed as Homo sapiens) [compound 389]
+++ (>50 = +++) | 392 (TEVSVLLLTF; listed as Homo sapiens) [compound 392]
+++ (>50 = +++) | 394 (SEILRVTLY; listed as Homo sapiens) [compound 394]
++++ (>75% = ++++) | 395 (AEDFVWAQW; listed as Homo sapiens) [compound 395]
++ (>20% = ++) | 396 (MELLFLDTF; listed as Homo sapiens) [compound 396]
+ (>10% = +) | 398 (AEIIRYIF; listed as Homo sapiens) [compound 398]
+++ (>50 = +++) | 402 (IETSSEYFNF; listed as Homo sapiens) [compound 402]
++++ (>75% = ++++) | 405 (YEHAFNSIVW; listed as Homo sapiens) [compound 405]
+++ (>50 = +++) | 406 (GETVVLKNM; listed as Homo sapiens) [compound 406]
+++ (>50 = +++) | 412 (EESFDSKFY; listed as Homo sapiens) [compound 412]
+++ (>50 = +++) | 415 (EEAGFPLAY; listed as Homo sapiens) [compound 415]
++++ (>75% = ++++) | 417 (EESFRCLPEW; listed as Homo sapiens) [compound 417]
+++ (>50 = +++) | 418 (GEPRKLLTQDW; listed as Homo sapiens) [compound 418]
+++ (>50 = +++) | 425 (KEVDPASNTY; listed as Homo sapiens) [compound 425]
++ (>20% = ++) | 429 (RETEDYSKQAL; listed as Homo sapiens) [compound 429]
+++ (>50 = +++) | 433 (AEEGPSVPKIY; listed as Homo sapiens) [compound 433]
+++ (>50 = +++) | 436 (AEADLSYTWDF; listed as Homo sapiens) [compound 436]
+++ (>50 = +++) | 438 (AELDSKILAL; listed as Homo sapiens) [compound 438]
++ (>20% = ++) | 440 (QEVAQVASA; listed as Homo sapiens) [compound 440]
+++ (>50 = +++) | 450 (REIENGNSF; listed as Homo sapiens) [compound 450]
+++ (>50 = +++) | 451 (REYEDGPLSL; listed as Homo sapiens) [compound 451]
